US20220010003A1 (Boehringer Ingelheim, published 2022)

Assays:
[1] = target: T1, recombinant mouse periostin (mouse, UniProt Q62009-2 24-811, limits assumed); experiment: cell-based or functional assay
T1 sequence (looked up): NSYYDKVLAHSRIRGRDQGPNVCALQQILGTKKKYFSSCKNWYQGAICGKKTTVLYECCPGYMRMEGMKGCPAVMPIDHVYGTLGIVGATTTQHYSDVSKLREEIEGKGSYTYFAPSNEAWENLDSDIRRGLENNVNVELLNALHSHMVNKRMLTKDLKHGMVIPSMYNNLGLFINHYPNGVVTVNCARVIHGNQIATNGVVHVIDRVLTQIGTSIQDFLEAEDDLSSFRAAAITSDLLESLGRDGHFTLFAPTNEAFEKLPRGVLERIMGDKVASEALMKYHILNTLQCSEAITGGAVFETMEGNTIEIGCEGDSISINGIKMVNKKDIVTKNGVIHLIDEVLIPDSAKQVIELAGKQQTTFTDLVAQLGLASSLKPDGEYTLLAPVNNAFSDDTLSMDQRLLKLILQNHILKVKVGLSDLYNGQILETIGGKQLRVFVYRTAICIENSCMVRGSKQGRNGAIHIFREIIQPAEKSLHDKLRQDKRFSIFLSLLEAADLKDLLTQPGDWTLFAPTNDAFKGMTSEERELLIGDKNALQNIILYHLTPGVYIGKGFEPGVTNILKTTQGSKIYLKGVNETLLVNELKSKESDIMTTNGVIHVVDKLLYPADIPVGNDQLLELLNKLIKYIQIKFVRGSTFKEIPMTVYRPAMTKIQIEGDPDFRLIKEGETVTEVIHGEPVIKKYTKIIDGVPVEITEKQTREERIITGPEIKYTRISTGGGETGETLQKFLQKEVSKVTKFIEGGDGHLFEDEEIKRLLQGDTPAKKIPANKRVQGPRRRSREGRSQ

NB1248 (K302A) = target: T2, NB1248 (K302A) (human, UniProt Q15063 22-631, limits assumed); experiment: ELISA on alanine variants of POSTN EMI-FAS4, second screen
T2 construct: also called POSTN EMI-FAS4 K302A
T2 sequence: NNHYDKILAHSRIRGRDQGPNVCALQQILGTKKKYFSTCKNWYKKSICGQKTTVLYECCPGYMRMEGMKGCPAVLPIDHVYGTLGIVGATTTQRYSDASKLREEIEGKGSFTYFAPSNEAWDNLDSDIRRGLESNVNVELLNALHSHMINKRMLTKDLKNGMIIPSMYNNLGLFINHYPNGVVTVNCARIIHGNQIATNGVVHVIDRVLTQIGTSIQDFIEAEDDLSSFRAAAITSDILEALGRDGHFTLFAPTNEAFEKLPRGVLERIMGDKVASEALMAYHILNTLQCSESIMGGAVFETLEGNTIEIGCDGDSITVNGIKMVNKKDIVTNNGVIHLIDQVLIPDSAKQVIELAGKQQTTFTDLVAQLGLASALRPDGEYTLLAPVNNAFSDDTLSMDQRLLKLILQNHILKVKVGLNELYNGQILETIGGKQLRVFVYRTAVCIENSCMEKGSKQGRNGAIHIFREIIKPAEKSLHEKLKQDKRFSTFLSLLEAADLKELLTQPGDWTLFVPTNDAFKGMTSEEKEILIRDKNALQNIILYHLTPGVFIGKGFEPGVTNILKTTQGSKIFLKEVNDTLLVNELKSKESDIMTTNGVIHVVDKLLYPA

NB1246 (V295A) = target: T3, NB1246 (V295A) (human, UniProt Q15063 22-631, limits assumed); experiment: as above
T3 construct: also called POSTN EMI-FAS4 V295A
T3 sequence: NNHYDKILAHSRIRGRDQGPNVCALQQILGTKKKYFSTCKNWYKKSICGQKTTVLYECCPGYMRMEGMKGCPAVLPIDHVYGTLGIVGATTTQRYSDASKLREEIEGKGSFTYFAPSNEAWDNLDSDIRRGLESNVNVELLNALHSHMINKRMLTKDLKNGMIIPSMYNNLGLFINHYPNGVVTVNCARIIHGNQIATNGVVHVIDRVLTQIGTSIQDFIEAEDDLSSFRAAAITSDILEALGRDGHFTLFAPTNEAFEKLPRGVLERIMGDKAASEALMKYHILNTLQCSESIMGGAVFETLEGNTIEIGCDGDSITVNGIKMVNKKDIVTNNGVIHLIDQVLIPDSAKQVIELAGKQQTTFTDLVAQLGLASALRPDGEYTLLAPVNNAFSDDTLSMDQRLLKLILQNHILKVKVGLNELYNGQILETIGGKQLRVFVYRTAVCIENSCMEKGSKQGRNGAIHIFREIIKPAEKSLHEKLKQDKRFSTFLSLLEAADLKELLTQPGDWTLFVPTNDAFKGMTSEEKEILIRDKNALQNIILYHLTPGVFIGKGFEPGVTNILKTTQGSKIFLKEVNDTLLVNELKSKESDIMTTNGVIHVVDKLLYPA

[2] = target: T4, recombinant human periostin (human, UniProt Q15063 22-836); experiment: binding ELISA, periostin coated
T4 construct: also called HuPOSTN; POSTN
T4 sequence: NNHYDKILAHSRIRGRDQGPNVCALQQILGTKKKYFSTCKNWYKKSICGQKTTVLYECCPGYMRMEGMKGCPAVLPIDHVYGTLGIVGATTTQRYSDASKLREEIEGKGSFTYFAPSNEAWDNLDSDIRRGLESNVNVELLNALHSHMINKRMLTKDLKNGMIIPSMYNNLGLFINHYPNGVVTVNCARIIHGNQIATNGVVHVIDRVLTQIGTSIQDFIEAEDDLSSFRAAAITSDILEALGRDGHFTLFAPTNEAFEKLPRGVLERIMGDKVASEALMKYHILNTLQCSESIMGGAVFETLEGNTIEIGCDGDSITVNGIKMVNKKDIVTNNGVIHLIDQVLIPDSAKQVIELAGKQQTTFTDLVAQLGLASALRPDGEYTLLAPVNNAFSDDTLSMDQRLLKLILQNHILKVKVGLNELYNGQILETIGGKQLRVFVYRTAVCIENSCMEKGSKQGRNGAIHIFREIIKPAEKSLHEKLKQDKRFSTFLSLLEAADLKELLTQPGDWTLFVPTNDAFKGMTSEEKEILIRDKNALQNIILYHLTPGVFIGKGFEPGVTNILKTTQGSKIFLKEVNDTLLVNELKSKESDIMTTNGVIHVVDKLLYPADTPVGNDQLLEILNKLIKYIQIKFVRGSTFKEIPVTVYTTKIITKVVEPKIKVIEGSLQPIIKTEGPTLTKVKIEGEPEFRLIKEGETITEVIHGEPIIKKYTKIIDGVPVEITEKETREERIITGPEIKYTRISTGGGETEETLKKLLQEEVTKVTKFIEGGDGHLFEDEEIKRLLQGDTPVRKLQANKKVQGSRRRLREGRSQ

[3] = target: T1, recombinant mouse periostin; experiment: binding ELISA, periostin coated

B1: NB0828 (antibody, V domains shown)
VH: QVQLVQSGAEVKKPGASVKVSCKASGYTFTSYGISWVRQAPGQGLEWMGWISAYNGNTNYAQKLQGRVTMTTDTSTSTAYMELRSLRSDDTAVYYCARDMLVVPFDYWGQGTLVTVSS
VL: QSVLTQSSSASGTPGQTVTVSCSGSSSDIGSNRVNWYQQLPGTAPKLLIYSNDQRPSGVPDRFSGSKSGTSASLAISGLQSADEADYYCAAWDDSLSTYVFGSGTKVTVL
- CAA IC50 [1]: 26000 pM
- loss from the max signal (NB1248 (K302A)): > 50%
- loss from the max signal (NB1246 (V295A)): > 50%
- EC50 [2]: 120 pM
- EC50 [3]: 150 pM
